Results published in patent publication US20090093061.

Tested on: GroEL having Aspartate 490 substituted with Cysteine, biotinylated and conjugated onto NeutrAvidin beads

mitochondrial malate dehydrogenase
refolding of denatured mMDH (conversion of NADH to NAD+ in the presence of oxaloacetate, OD at 340 nm): positive GroEL-490 activity was confirmed by a reduction in OD at 340 nm with respect to the control
